Ends that are not written are not given here.
T1: SEQ ID NO 45 (human, also: covalently linked to cellulose)
T1 construct: Spot on the CelluSpots peptide array; also called F-G-N-K-P-T-G-Y-G-S-S-S-R-R-A
T1 peptide: FGNKPTGYGSSSRRA

T2: SEQ ID NO 49 (human, also: covalently linked to cellulose)
T2 construct: Spot on the CelluSpots peptide array; also called P-T-G-Y-G-S-S-S-R-R-A-P-Q-T-G
T2 peptide: PTGYGSSSRRAPQTG

T3: SEQ ID NO 50 (human, also: covalently linked to cellulose)
T3 construct: Spot on the CelluSpots peptide array; also called T-G-Y-G-S-S-S-R-R-A-P-Q-T-G-G
T3 peptide: TGYGSSSRRAPQTGG

T4: SEQ ID NO 46 (human, also: covalently linked to cellulose)
T4 construct: Spot on the CelluSpots peptide array; also called G-N-K-P-T-G-Y-G-S-S-S-R-R-A-P
T4 peptide: GNKPTGYGSSSRRAP

T5: SEQ ID NO 44 (human, also: covalently linked to cellulose)
T5 construct: Spot on the CelluSpots peptide array; also called Y-F-G-N-K-P-T-G-Y-G-S-S-S-R-R
T5 peptide: YFGNKPTGYGSSSRR

T6: SEQ ID NO 47 (human, also: covalently linked to cellulose)
T6 construct: Spot on the CelluSpots peptide array; also called N-K-P-T-G-Y-G-S-S-S-R-R-A-P-Q
T6 peptide: NKPTGYGSSSRRAPQ

T7: SEQ ID NO 43 (human, also: covalently linked to cellulose)
T7 construct: Spot on the CelluSpots peptide array; also called F-Y-F-G-N-K-P-T-G-Y-G-S-S-S-R
T7 peptide: FYFGNKPTGYGSSSR

T8: SEQ ID NO 48 (human, also: covalently linked to cellulose)
T8 construct: Spot on the CelluSpots peptide array; also called K-P-T-G-Y-G-S-S-S-R-R-A-P-Q-T
T8 peptide: KPTGYGSSSRRAPQT

T9: Thermus thermophilus wild type SlyD polypeptide (Thermus thermophilus)
T9 construct: Used as negative control; also called wild-type Thermus thermophilus SlyD; Thermus thermophilus-SlyD
T9 chain: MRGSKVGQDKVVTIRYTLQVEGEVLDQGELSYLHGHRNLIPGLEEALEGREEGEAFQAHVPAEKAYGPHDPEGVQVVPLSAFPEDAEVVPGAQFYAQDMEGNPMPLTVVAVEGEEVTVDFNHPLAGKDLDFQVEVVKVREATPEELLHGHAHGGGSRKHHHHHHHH

T10: Thermococcus gammatolerans SlyD-IGF-2(53-65) fusion polypeptide
T10 construct: Human IGF-2 amino acids 53-65 inserted into the Thermococcus gammatolerans SlyD scaffold, with GS spacer and hexahistidine tag; also called Thermococcus gammadurans SlyD-IGF-2 (53-65)
T10 chain: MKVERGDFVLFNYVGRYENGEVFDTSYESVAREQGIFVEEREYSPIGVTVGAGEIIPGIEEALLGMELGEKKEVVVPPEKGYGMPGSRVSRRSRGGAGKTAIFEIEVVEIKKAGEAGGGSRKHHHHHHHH

T11: Thermococcus gammatolerans wild-type SlyD polypeptide (Thermococcus gammatolerans)
T11 construct: also called wild-type Thermococcus gammadurans SlyD; native SlyD from Thermococcus gammatolerans
T11 chain: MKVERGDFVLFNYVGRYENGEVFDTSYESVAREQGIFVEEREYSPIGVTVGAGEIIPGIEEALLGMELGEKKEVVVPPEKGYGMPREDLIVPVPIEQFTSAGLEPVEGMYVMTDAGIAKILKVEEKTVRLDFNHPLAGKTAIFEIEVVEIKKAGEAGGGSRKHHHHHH

B1: MAb<h-IGF-1>M-11.11.17 (antibody, V domains shown)
VH: QVQLQQSGAELVRPGSSVKISCKASGYAFSNLWMNWVKQRPGQGLEWIGQIYPGDGDTNYYGDFKGKATLTADSSSSTAYMQLSRLTSEDSAVYFCARIGYYGMDYWGQGTSVTVSS
VL: DVVLTQTPLSLPVNIGDEASISCKSTKSLLSSDGLTYLDWYLQKPGQSPQVLIYLVSNRFSGVPDRFSGSGSGTDFTLKISRVEAEDLGVYYCFQSNYLPTFGAGTKLELK
notes: Mouse monoclonal IgG from a hybridoma, raised with Thermus thermophilus SlyD-IGF-1(74-90); also called MAb 11.11.17; mAb<IGF1>M-11.11.17
B2: MAb<h-IGF-1>M-10.07.09 (antibody, V domains shown)
VH: QVQLQQSGAELVRPGSSVKISCKASGYAFSSYWMNWVKQRPGQGLEWIGQIYPGDGDTNHNGKFKGKATLTADKSSSTVYMQLSSLTSEDSAVYFCARSGDYYGKDYWGQGTTLTVSS
VL: DIVLTQTPPSLPVNMGQKATISYKATKSLLNTDGYTYMHWNQQKPGQPPKLLIYLVSNRESGVPDRFSGSGSGTDFTLNINTVEEEDAATYYCHHSNELPHTFGAGTKLEIK
notes: Mouse monoclonal antibody from a hybridoma, raised with Thermus thermophilus SlyD-IGF-1(74-90); In SPR it was captured from clone culture supernatant through anti-mouse IgG Fc; also called MAb 10.07.09; M-10.7.9

Legend:
[1] = biological target: T1, SEQ ID NO 45; experiment: CelluSpots peptide array, chemiluminescence
Protocol: (§1) Each peptide synthesized was shifted by one amino acid, i.e. it had 14 amino acids overlap with the previous and the following peptide, respectively. For preparation of the peptide arrays the Intavis CelluSpots™ technology was employed. In this approach, peptides are synthesized with an automated synthesizer (Intavis MultiPep RS) on modified cellulose disks which are dissolved after synthesis. The solutions of individual peptides covalently linked to macromolecular cellulose are then spotted onto coated microscope slides. The CelluSpots™ synthesis was carried out stepwise utilizing 9-fluorenylmethoxycarbonyl (Fmoc) chemistry on amino-modified cellulose disks in a 384-well synthesis plate. In each coupling cycle, the corresponding amino acids were activated with a solution of DIC/HOBt in DMF. Between coupling steps un-reacted amino groups were capped with a mixture of acetic anhydride, diisopropylethyl amine and 1-hydroxybenzotriazole. Upon completion of the synthesis, the cellulose disks were transferred to a 96-well plate and treated with a mixture of trifluoroacetic acid (TFA), dichloromethane, triisoproylsilane (TIS) and water for side chain deprotection. After removal of the cleavage solution, the cellulose bound peptides are dissolved with a mixture of TFA, TFMSA, TIS and water, precipitated with diisopropyl ether and re-suspended in DMSO. The peptide solutions were subsequently spotted onto Intavis CelluSpots™ slides using an Intavis slide spotting robot.
(§2) For epitope analysis, the slides prepared as described above were washed with ethanol and then with Tris-buffered saline (TBS; 50 mM Tris, 137 mM NaCl, 2.7 mM KCl, pH 8) before blocking for 16 h at 4° C. with 5 mL 10× Western Blocking Reagent (Roche Applied Science), 2.5 g sucrose in TBS, 0.1% Tween 20. The slide was washed with TBS and 0.1% Tween 20 and incubated afterward with 1 µg/mL of the corresponding IGF1 antibodies in TBS and 0.1% Tween 20 at ambient temperature for 2 h and subsequently washed with TBS+0.1% Tween 20. For detection, the slide was incubated with anti-rabbit/anti-mouse secondary HRP-antibody (1:20000 in TBS-T) followed by incubation with chemiluminescence substrate luminol and visualized with a Lumilmager (Roche Applied Science). ELISA-positive SPOTs were quantified and through assignment of the corresponding peptide sequences the antibody binding epitopes were identified.

[2] = biological target: T2, SEQ ID NO 49; experiment: CelluSpots peptide array, chemiluminescence
Protocol: as §1, §2

[3] = biological target: T3, SEQ ID NO 50; experiment: CelluSpots peptide array, chemiluminescence
Protocol: as §1, §2

[4] = biological target: T4, SEQ ID NO 46; experiment: CelluSpots peptide array, chemiluminescence
Protocol: as §1, §2

[5] = biological target: T5, SEQ ID NO 44; experiment: CelluSpots peptide array, chemiluminescence
Protocol: as §1, §2

[6] = biological target: T6, SEQ ID NO 47; experiment: CelluSpots peptide array, chemiluminescence
Protocol: as §1, §2

[7] = biological target: T7, SEQ ID NO 43; experiment: CelluSpots peptide array, chemiluminescence
Protocol: as §1, §2

[8] = biological target: T8, SEQ ID NO 48; experiment: CelluSpots peptide array, chemiluminescence
Protocol: as §1, §2

[9] = biological target: T9, Thermus thermophilus wild type SlyD …; experiment: SPR (BIAcore T200), 25 C, antibody captured, antigen in solution
Protocol: (§3) The BIAcore T200 System was driven under the control software V1.1.1. Polyclonal rabbit IgG antibody <IgGFCγM>R (Jackson ImmunoResearch Laboratories Inc.) was immobilized at 30 μg/ml in 10 mM sodium acetate buffer (pH 4.5) at 6500 RU on the flow cells 1, 2, 3, and 4, respectively, via EDC/NHS chemistry according to the manufacturer's instructions. Finally, the sensor surface was blocked with a 1 M ethanolamine solution. The complete experiment was performed at 25° C.
(§4) The clone culture supernatants containing the respective antibodies at approx. 40 nM were captured for 2 min at a flow rate of 5 μl/min on the <IgGFCγM>R surface. As analytes in solution the recombinant native IGF-1 (Peprotech Inc. Cat.#100-11), recombinant native IGF-2 (Peprotech Inc. Cat.#100-12), Thermus thermophilus SlyD-IGF-1(74-90), recombinant wild-type Thermus thermophilus SlyD, recombinant Thermus thermophilus SlyD-ΔIF, recombinant wild-type Thermococcus gammadurans SlyD, recombinant Thermococcus gammadurans SlyD-IGF-2 (53-65) fusion polypeptides were used. Thermus thermophilus SlyD-ΔIF is solely the FKBP domain of Thermus thermophilus SlyD lacking the IF domain. Thermococcus gammadurans SlyD-IGF-2(53-65) was used to counterscreen and investigate the specificity for the IGF-1 hairpin in contrast to the IGF-2 hairpin insertion. The respective analytes were injected at different concentration steps from 90 nM, 30 nM, 10 nM, 3.3 nM, 1.1 nM and 0 nM. The association phase was monitored for 3 min. at a flow rate of 100 μl/min. The dissociation was monitored for 10 min. at a flow rate of 100 μl/min. The system was regenerated using a 10 mM glycine buffer (pH 1.7). Kinetics were evaluated using the BIAcore Evaluation Software.

[10] = biological target: T10, Thermococcus gammatolerans …; experiment: as above
Protocol: as §3, §4

[11] = biological target: T11, Thermococcus gammatolerans wild-type …; experiment: as above
Protocol: as §3, §4

[12] = biological target: T12, recombinant native IGF-2 (Peprotech Inc. Cat.#100-12) (human, UniProt P01344 25-91); experiment: as above
T12 construct: The sentence on the bought protein names no species; also called insulin-like growth factor-2
Protocol: as §3, §4

[13] = biological target: T13, human insulin-like growth factor-1 (mature, recombinant native IGF-1, Peprotech Cat.#100-11) (human, UniProt P05019 49-118); experiment: as above
T13 construct: In SPR it was the analyte in solution; also called native recombinant IGF-1; human IGF-1
Protocol: as §3, §4

[14] = biological target: T9, Thermus thermophilus wild type SlyD …; experiment: ELISA, clone culture supernatant
[15] = biological target: T13, human insulin-like growth factor-1 …; experiment: ELISA, clone culture supernatant

Row | Binder | binding result [1] | binding result [2] | binding result [3] | binding result [4] | binding result [5] | binding result [6] | binding result [7] | binding result [8] | binding result [9] | binding result [10] | binding result [11] | binding result [12] | Kd [13] [pM] | koff [13] [s⁻¹] | kon [13] [M⁻¹ s⁻¹] | t1/2-diss [13] [h] | reactivity [mE] [14] [mE] | reactivity [mE] [15] [mE]
1 | B1 | binds | binds | binds | binds | binds | binds | binds | binds | no binding (tested: 90 nM) | no binding (tested: 90 nM) | no binding (tested: 90 nM) | no binding (tested: 90 nM) | 10 | 2.1e-05 | 2e+06 | 9.33 | 32 | 2430
2 | B2 | – | – | – | – | – | – | – | – | – | – | – | – | 1600 | 0.0015 | 920000 | 0.133 | – | 2110

— patent US20160137728A1 (ROCHE DIAGNOSTICS OPERATIONS, published 2016)
